Results taken from publication PMC4957052 (The Journal of Biological Chemistry, 2016).

T1: M. musculus αE-catenin (M. musculus), P26231
T1 chain: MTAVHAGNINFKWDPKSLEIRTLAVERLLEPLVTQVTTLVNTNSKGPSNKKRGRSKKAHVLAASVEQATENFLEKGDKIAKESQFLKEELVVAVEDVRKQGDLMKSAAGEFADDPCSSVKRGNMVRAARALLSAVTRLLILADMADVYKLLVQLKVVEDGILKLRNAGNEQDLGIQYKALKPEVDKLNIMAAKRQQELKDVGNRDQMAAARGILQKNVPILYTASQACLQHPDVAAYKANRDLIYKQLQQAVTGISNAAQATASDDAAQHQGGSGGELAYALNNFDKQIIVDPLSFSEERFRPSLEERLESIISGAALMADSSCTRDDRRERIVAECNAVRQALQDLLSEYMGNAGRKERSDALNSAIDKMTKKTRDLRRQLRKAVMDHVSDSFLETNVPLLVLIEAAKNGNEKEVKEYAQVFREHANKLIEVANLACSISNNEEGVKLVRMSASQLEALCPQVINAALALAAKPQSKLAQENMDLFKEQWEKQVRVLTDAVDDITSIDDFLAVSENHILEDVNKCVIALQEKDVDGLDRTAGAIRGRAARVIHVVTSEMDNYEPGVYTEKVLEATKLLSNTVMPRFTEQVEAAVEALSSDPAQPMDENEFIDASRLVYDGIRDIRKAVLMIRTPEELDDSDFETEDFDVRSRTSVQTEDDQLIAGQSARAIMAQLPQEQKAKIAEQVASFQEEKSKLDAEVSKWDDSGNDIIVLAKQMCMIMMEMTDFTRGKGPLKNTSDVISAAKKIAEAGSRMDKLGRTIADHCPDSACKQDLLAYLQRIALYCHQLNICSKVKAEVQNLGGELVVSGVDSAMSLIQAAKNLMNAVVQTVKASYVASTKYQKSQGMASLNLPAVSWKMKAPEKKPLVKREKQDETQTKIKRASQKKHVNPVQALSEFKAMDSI

T2: mouse β-catenin (GST cleaved) (mouse, UniProt Q02248 1-781)
T2 construct: β-catenin, mouse; Probably the construct of m7 (full length) after TEV cleavage; source: E. coli BL21(DE3), purified (glutathione-agarose, TEV cleavage, Mono Q, S200 gel filtration)
T2 sequence (looked up): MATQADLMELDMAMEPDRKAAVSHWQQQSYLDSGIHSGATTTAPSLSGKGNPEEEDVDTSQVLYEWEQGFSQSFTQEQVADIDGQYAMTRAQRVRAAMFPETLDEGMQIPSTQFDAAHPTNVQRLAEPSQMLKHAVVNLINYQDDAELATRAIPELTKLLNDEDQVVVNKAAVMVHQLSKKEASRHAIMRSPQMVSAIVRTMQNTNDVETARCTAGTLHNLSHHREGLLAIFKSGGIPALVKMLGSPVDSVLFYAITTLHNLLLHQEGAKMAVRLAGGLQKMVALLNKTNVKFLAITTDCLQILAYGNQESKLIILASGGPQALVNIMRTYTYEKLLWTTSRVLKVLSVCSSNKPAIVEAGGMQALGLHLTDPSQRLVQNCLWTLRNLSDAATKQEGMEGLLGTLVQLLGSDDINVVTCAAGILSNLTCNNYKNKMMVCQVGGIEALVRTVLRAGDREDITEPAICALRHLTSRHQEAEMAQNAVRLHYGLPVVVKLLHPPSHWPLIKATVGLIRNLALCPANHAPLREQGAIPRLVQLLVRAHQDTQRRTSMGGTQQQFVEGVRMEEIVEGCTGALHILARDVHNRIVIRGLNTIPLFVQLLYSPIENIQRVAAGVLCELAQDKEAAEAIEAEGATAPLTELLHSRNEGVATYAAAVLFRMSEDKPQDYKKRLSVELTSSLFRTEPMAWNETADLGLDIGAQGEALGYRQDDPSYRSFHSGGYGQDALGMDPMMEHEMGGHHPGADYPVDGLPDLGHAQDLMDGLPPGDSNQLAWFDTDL


Assays:
[1] = target: the molecule itself; assay: SEC + other: sucrose density gradient centrifugation; analytical Superdex 200 at 4 °C in 20 mM Tris pH 8.0, 150 mM NaCl, 1 mM DTT, protein injected at 25-30 μM (25-50 μM in the results); 5-20% sucrose gradients, 200,000 x g 4 h 4 °C, protein loaded at ≥20 μM; molecular mass from Stokes radius and sedimentation coefficient
[2] = target: T1, M. musculus αE-catenin (M. musculus), …; assay: as above; details: remark: other sources report otherwise
[3] = target: T2, mouse β-catenin (GST cleaved); assay: not stated; purified mouse β-catenin mixed with αT-catenin; data not shown; details: both partners purified

Binder	stoichiometry N [1]	also measured
αT-catenin V94D ΔABD (aa 1-659) (domain or fragment, M. musculus, UniProt Q65CL1 1-659, looked up, αT-catenin, Mus musculus, N-terminal head region aa 1-659 (ABD aa 660-895 deleted) with V94D; source: E. coli BL21(DE3), purified (glutathione-agarose, TEV cleavage, Mono Q, S200 gel filtration)) MSAETPITLNMDTQDLQIQTFTVEKLLEPLIIQVTTLVNCPQNPSNRKKGRSKRARVLLASVEEATWNLLDKGEMIAKEATVLKEELAAALQEDRKESKALKVSAERFTDDPCYLPKREAVVQAARALLAAVTRLLVLADMIDVMCLLQHVSSFQRTFESLKNVSNKSDLQRTYQKLGKELESLDYLAFKRQQDLKSPSQRDEIAGARATLKENSPLLHSICSACLEHSDVASLKASKDTVCEEIQNALDVISNASQGIQNAPAPPEPQAATLGSAFDELENLIVLNPLTVTEEDVRPSLEKRLEAIISGAALLADSSCTRDLHRERIIAECNAIRQALQDLLTEYMSNTGKTERSNTLNTAIVNMSKKTRDLRRQLRKAIIDHISDSFLDTTVPLLVLIEAAKNGRVKEIKDYAAIFHEHTGRLVEVANLACSMSTNEDGIKIVRIAANHLETLCPQIINAALALASRPKSQVVKNTMEMYKRTWEHYIHVLTEAVDDITSIDDFLAVSESHILEDVNKCIIALRDQDADNLDRAAGAIRGRAARVAHIVAGEMDSYEPGAYTEGVMRNVNFLTSTVIPEFVTQVNVALDALSKNSLTALDDNQFVDISKKIYDTIHDIRCSVMMIRTPEELEDVSDLEDDHEVRSHTSIQTEGKTDR	2	–
M. musculus αE-catenin, P26231 1-906 (natural protein) MTAVHAGNINFKWDPKSLEIRTLAVERLLEPLVTQVTTLVNTNSKGPSNKKRGRSKKAHVLAASVEQATENFLEKGDKIAKESQFLKEELVVAVEDVRKQGDLMKSAAGEFADDPCSSVKRGNMVRAARALLSAVTRLLILADMADVYKLLVQLKVVEDGILKLRNAGNEQDLGIQYKALKPEVDKLNIMAAKRQQELKDVGNRDQMAAARGILQKNVPILYTASQACLQHPDVAAYKANRDLIYKQLQQAVTGISNAAQATASDDAAQHQGGSGGELAYALNNFDKQIIVDPLSFSEERFRPSLEERLESIISGAALMADSSCTRDDRRERIVAECNAVRQALQDLLSEYMGNAGRKERSDALNSAIDKMTKKTRDLRRQLRKAVMDHVSDSFLETNVPLLVLIEAAKNGNEKEVKEYAQVFREHANKLIEVANLACSISNNEEGVKLVRMSASQLEALCPQVINAALALAAKPQSKLAQENMDLFKEQWEKQVRVLTDAVDDITSIDDFLAVSENHILEDVNKCVIALQEKDVDGLDRTAGAIRGRAARVIHVVTSEMDNYEPGVYTEKVLEATKLLSNTVMPRFTEQVEAAVEALSSDPAQPMDENEFIDASRLVYDGIRDIRKAVLMIRTPEELDDSDFETEDFDVRSRTSVQTEDDQLIAGQSARAIMAQLPQEQKAKIAEQVASFQEEKSKLDAEVSKWDDSGNDIIVLAKQMCMIMMEMTDFTRGKGPLKNTSDVISAAKKIAEAGSRMDKLGRTIADHCPDSACKQDLLAYLQRIALYCHQLNICSKVKAEVQNLGGELVVSGVDSAMSLIQAAKNLMNAVVQTVKASYVASTKYQKSQGMASLNLPAVSWKMKAPEKKPLVKREKQDETQTKIKRASQKKHVNPVQALSEFKAMDSI	–	stoichiometry N [2]: 2
M. musculus αT-catenin (wild type, full length) (natural protein, UniProt Q65CL1 1-895, looked up, Cloned into pGEX-TEV; cleaved from GST with tobacco etch virus protease; also called αT (testes)-catenin; WT αT-catenin; source: E. coli BL21(DE3), purified (glutathione-agarose, TEV cleavage, Mono Q, S200 gel filtration)) MSAETPITLNMDTQDLQIQTFTVEKLLEPLIIQVTTLVNCPQNPSNRKKGRSKRARVLLASVEEATWNLLDKGEMIAKEATVLKEELAAALQEVRKESKALKVSAERFTDDPCYLPKREAVVQAARALLAAVTRLLVLADMIDVMCLLQHVSSFQRTFESLKNVSNKSDLQRTYQKLGKELESLDYLAFKRQQDLKSPSQRDEIAGARATLKENSPLLHSICSACLEHSDVASLKASKDTVCEEIQNALDVISNASQGIQNAPAPPEPQAATLGSAFDELENLIVLNPLTVTEEDVRPSLEKRLEAIISGAALLADSSCTRDLHRERIIAECNAIRQALQDLLTEYMSNTGKTERSNTLNTAIVNMSKKTRDLRRQLRKAIIDHISDSFLDTTVPLLVLIEAAKNGRVKEIKDYAAIFHEHTGRLVEVANLACSMSTNEDGIKIVRIAANHLETLCPQIINAALALASRPKSQVVKNTMEMYKRTWEHYIHVLTEAVDDITSIDDFLAVSESHILEDVNKCIIALRDQDADNLDRAAGAIRGRAARVAHIVAGEMDSYEPGAYTEGVMRNVNFLTSTVIPEFVTQVNVALDALSKNSLTALDDNQFVDISKKIYDTIHDIRCSVMMIRTPEELEDVSDLEDDHEVRSHTSIQTEGKTDRAKMTQLPEAEKEKIAEQVADFKKVKSKLDAEIEIWDDTSNDIIVLAKKMCMIMMEMTDFTRGKGPLKHTTDVIYAAKMISESGSRMDVLARQIANQCPDPPCKQDLLAYLEQIKFYSHQLKICSQVKAEIQNLGGELIVSALDSVTSLIQAAKNLMNAVVQTVKMSYIASTKIIRIQSSAGPRHPVVMWRMKAPAKKPLIKREKPEETWAAVRRGSAKKKIHPVQVMSEFRGRQVY	–	stoichiometry N [3]: 1
M. musculus αT-catenin V94D (full length) (natural protein, UniProt Q65CL1 1-895, looked up, αT-catenin, Mus musculus, full length, with the ARVC-linked V94D change made by site-directed mutagenesis; here it was put into the mouse protein; also called V94D mutant; V94D homodimer; source: E. coli BL21(DE3), purified (glutathione-agarose, TEV cleavage, Mono Q, S200 gel filtration)) MSAETPITLNMDTQDLQIQTFTVEKLLEPLIIQVTTLVNCPQNPSNRKKGRSKRARVLLASVEEATWNLLDKGEMIAKEATVLKEELAAALQEDRKESKALKVSAERFTDDPCYLPKREAVVQAARALLAAVTRLLVLADMIDVMCLLQHVSSFQRTFESLKNVSNKSDLQRTYQKLGKELESLDYLAFKRQQDLKSPSQRDEIAGARATLKENSPLLHSICSACLEHSDVASLKASKDTVCEEIQNALDVISNASQGIQNAPAPPEPQAATLGSAFDELENLIVLNPLTVTEEDVRPSLEKRLEAIISGAALLADSSCTRDLHRERIIAECNAIRQALQDLLTEYMSNTGKTERSNTLNTAIVNMSKKTRDLRRQLRKAIIDHISDSFLDTTVPLLVLIEAAKNGRVKEIKDYAAIFHEHTGRLVEVANLACSMSTNEDGIKIVRIAANHLETLCPQIINAALALASRPKSQVVKNTMEMYKRTWEHYIHVLTEAVDDITSIDDFLAVSESHILEDVNKCIIALRDQDADNLDRAAGAIRGRAARVAHIVAGEMDSYEPGAYTEGVMRNVNFLTSTVIPEFVTQVNVALDALSKNSLTALDDNQFVDISKKIYDTIHDIRCSVMMIRTPEELEDVSDLEDDHEVRSHTSIQTEGKTDRAKMTQLPEAEKEKIAEQVADFKKVKSKLDAEIEIWDDTSNDIIVLAKKMCMIMMEMTDFTRGKGPLKHTTDVIYAAKMISESGSRMDVLARQIANQCPDPPCKQDLLAYLEQIKFYSHQLKICSQVKAEIQNLGGELIVSALDSVTSLIQAAKNLMNAVVQTVKMSYIASTKIIRIQSSAGPRHPVVMWRMKAPAKKPLIKREKPEETWAAVRRGSAKKKIHPVQVMSEFRGRQVY	2	–
